Data published in the supplement of paper PMC10065799, “High-throughput profiling of sequence recognition by tyrosine kinases and SH2 domains using bacterial peptide display” (eLife, 2023).
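Also: 11-residue human phosphosite peptides and single-mutation variants displayed on the E. coli surface, counted by deep sequencing, each peptide's frequency after selection divided by its frequency in the unselected input library; frequency after pTyr selection over input frequency; kinase dosed for 20-30% of maximal phosphorylation in three min.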

The sequences below were run against FGFR3 (UniProt P22607) (assay: phosphorylation enrichment, bacterial display (enrichment ratio); higher = better substrate or ligand; peptides without Tyr show the background).
Chain of FGFR3 (P22607 whole entry, looked up): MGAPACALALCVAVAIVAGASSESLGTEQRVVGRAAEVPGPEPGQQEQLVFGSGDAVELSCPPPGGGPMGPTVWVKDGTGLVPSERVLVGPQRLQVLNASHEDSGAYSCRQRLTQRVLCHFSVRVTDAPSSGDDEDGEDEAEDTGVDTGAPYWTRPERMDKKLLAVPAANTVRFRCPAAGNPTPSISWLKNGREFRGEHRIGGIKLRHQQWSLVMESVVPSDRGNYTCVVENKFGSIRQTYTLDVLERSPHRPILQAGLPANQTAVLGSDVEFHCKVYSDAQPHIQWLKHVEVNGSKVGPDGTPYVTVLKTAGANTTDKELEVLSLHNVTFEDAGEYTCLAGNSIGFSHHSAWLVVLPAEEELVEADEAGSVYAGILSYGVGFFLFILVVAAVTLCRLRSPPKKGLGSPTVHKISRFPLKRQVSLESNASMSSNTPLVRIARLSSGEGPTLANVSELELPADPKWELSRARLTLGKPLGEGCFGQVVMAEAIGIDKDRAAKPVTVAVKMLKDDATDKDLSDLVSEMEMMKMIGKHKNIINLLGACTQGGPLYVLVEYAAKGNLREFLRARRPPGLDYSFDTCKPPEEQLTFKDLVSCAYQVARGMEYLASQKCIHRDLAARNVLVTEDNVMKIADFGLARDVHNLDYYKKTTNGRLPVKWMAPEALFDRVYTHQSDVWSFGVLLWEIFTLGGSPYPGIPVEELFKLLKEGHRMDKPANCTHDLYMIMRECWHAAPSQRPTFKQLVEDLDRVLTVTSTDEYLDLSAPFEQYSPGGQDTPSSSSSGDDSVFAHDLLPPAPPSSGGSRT
PGQRVYVVAES [SHH_Y316_R321S] was tested, and the phosphorylation enrichment was 0.848. PVDVAYRHGFF [PLEC_Y2967_R2969H_YF] showed a phosphorylation enrichment of 0.458. For IGEGTYRTVFK [CDK5_Y15_G16R], the phosphorylation enrichment was 0.533. With RNVFFYSFLLK [PTEN_Y178_Y174N_YF] the phosphorylation enrichment was 1.31. Sequence SLQFEYVHFGG [CDC14A_Y591_S589F_YF] has a phosphorylation enrichment of 1.33. In the case of ILIFHYAKGQP [MPZ_Y82_S78L], the phosphorylation enrichment is reported as 0.85. HISGVYKLPPD [ANGPTL7_Y145_R140H] showed a phosphorylation enrichment of 0.67. Work on KGRAGYTTVAV [RET_Y752] yielded a phosphorylation enrichment of 0.412. ATARPYRPYII [LRP5_Y1528] showed a phosphorylation enrichment of 0.545. PSGPAYRGAVP [ASAH1_Y43_T42A] was tested, and the phosphorylation enrichment was 0.423. ARGMEYLASKK [FGFR1_Y613] was tested, and the phosphorylation enrichment was 0.409. Work on RKETFYILSCR [GUCY2C_Y681_T682I] yielded a phosphorylation enrichment of 0.917. RLRKYHLGKYL [KLB_Y906_Y906H] showed a phosphorylation enrichment of 0.464. FLTQHYDAEPQ [ANG_Y38_K41E] showed a phosphorylation enrichment of 0.684. Sequence TEQDPYNNIVH [MMUT_Y364_R369H] has a phosphorylation enrichment of 0.599. For YSGDCYRIQGR [DDR2_Y741_Y740C], the phosphorylation enrichment was 0.715. Work on LKEIRYPPFTD [ALDH3B2_Y362_H361R_YF] yielded a phosphorylation enrichment of 1.07. Work on DQIDTYELSGG [DNM1_Y354] yielded a phosphorylation enrichment of 0.695. NHFKIYNLCAE [PTEN_Y68_YF] gave a phosphorylation enrichment of 0.647. In the case of WQQQSYLDYGI [CTNNB1_Y30_S33Y], the phosphorylation enrichment is reported as 0.827. For GLSAPYVKIHL [SYT2_Y309_D307A], the phosphorylation enrichment was 0.714. KIVQDYLEKFY [MMP8_Y36_T32I] gave a phosphorylation enrichment of 0.595. In the case of GVRLFYRVRES [RB1_Y454_M457R_YF], the phosphorylation enrichment is reported as 0.65. KVGRVYLFLQP [ITGA2B_Y360_E355K] was tested, and the phosphorylation enrichment was 0.768. For NRVEIYEKTVE [CYFIP1_Y108], the phosphorylation enrichment was 0.696. In the case of VPLLEYFRDIF [CDAN1_Y712_YF], the phosphorylation enrichment is reported as 0.943. DDHFTYSRYPW [LY75_Y888] gave a phosphorylation enrichment of 0.969. Work on LVSCTYQLARG [FGFR2_Y608] yielded a phosphorylation enrichment of 0.698. Work on IHFAIYLLKFS [ARMC9_Y107_YF] yielded a phosphorylation enrichment of 0.684. Work on PPSLSYLSFEG [EXOSC3_Y143_A139P] yielded a phosphorylation enrichment of 0.713. Sequence LNARHYGGLTG [PGAM2_Y92_E89A] has a phosphorylation enrichment of 0.513. In the case of KVNKIYHPDFI [LIG3_Y767_Y768H], the phosphorylation enrichment is reported as 0.539. For QSPQLYKQMCI [DARS1_Y253], the phosphorylation enrichment was 0.573.

What follows are sequences tested on Fer (mouse) in the same assay as above.
In the case of PGQRVYVVAES [SHH_Y316_R321S], the phosphorylation enrichment is reported as 0.728. Work on PVDVAYRHGFF [PLEC_Y2967_R2969H_YF] yielded a phosphorylation enrichment of 0.342. IGEGTYRTVFK [CDK5_Y15_G16R] showed a phosphorylation enrichment of 0.317. RNVFFYSFLLK [PTEN_Y178_Y174N_YF] showed a phosphorylation enrichment of 0.697. Work on SLQFEYVHFGG [CDC14A_Y591_S589F_YF] yielded a phosphorylation enrichment of 0.367. Work on ILIFHYAKGQP [MPZ_Y82_S78L] yielded a phosphorylation enrichment of 0.819. Sequence HISGVYKLPPD [ANGPTL7_Y145_R140H] has a phosphorylation enrichment of 0.618. Work on KGRAGYTTVAV [RET_Y752] yielded a phosphorylation enrichment of 0.325. ATARPYRPYII [LRP5_Y1528] gave a phosphorylation enrichment of 0.482. PSGPAYRGAVP [ASAH1_Y43_T42A] was tested, and the phosphorylation enrichment was 0.533. For ARGMEYLASKK [FGFR1_Y613], the phosphorylation enrichment was 0.324. For RKETFYILSCR [GUCY2C_Y681_T682I], the phosphorylation enrichment was 0.665. RLRKYHLGKYL [KLB_Y906_Y906H] gave a phosphorylation enrichment of 0.426. FLTQHYDAEPQ [ANG_Y38_K41E] showed a phosphorylation enrichment of 0.511. In the case of TEQDPYNNIVH [MMUT_Y364_R369H], the phosphorylation enrichment is reported as 0.544. In the case of YSGDCYRIQGR [DDR2_Y741_Y740C], the phosphorylation enrichment is reported as 0.49. Sequence LKEIRYPPFTD [ALDH3B2_Y362_H361R_YF] has a phosphorylation enrichment of 1.09. Work on DQIDTYELSGG [DNM1_Y354] yielded a phosphorylation enrichment of 0.479. With NHFKIYNLCAE [PTEN_Y68_YF] the phosphorylation enrichment was 0.535. With WQQQSYLDYGI [CTNNB1_Y30_S33Y] the phosphorylation enrichment was 0.453. GLSAPYVKIHL [SYT2_Y309_D307A] was tested, and the phosphorylation enrichment was 0.527. In the case of KIVQDYLEKFY [MMP8_Y36_T32I], the phosphorylation enrichment is reported as 0.428. In the case of GVRLFYRVRES [RB1_Y454_M457R_YF], the phosphorylation enrichment is reported as 0.461. KVGRVYLFLQP [ITGA2B_Y360_E355K] gave a phosphorylation enrichment of 0.492. Sequence NRVEIYEKTVE [CYFIP1_Y108] has a phosphorylation enrichment of 0.582. VPLLEYFRDIF [CDAN1_Y712_YF] was tested, and the phosphorylation enrichment was 0.584. DDHFTYSRYPW [LY75_Y888] gave a phosphorylation enrichment of 0.642. Work on LVSCTYQLARG [FGFR2_Y608] yielded a phosphorylation enrichment of 0.605. For IHFAIYLLKFS [ARMC9_Y107_YF], the phosphorylation enrichment was 0.303. For PPSLSYLSFEG [EXOSC3_Y143_A139P], the phosphorylation enrichment was 0.451. For LNARHYGGLTG [PGAM2_Y92_E89A], the phosphorylation enrichment was 0.634. Work on KVNKIYHPDFI [LIG3_Y767_Y768H] yielded a phosphorylation enrichment of 0.395. QSPQLYKQMCI [DARS1_Y253] showed a phosphorylation enrichment of 0.673.
